Measurements reported in PMC5065237, “Investigation into the Mode of Phosphate Activation in the 4-Hydroxy-4-Methyl-2-Oxoglutarate/4-Carboxy-4-Hydroxy-2-Oxoadipate Aldolase from Pseudomonas putida F1” (PLoS ONE, 2016).

Columns and labels:
Test in all cases: purified protein
Type in all cases: biochemical, Pseudomonas putida
[1] = system: T1, CC(O)(CC(=O)C(=O)O)C(=O)O; conditions: without Pi, 1 mM MgCl2, 0.1 M HEPES pH 8.0, 25 °C, racemic substrate
T1 construct: recombinant from pT7-7, expressed in E. coli; chelex-treated apo-enzyme reconstituted with MgCl2

O=C(O)CC(=O)C(=O)O = system: T2, O=C(O)CC(=O)C(=O)O; conditions: without Pi, 1 mM MgCl2, 0.1 M HEPES pH 8.0, 25 °C
T2 construct: recombinant from pT7-7, expressed in E. coli; chelex-treated apo-enzyme reconstituted with MgCl2

[2] = system: T3, O=C(O)CC(O)(CC(=O)C(=O)O)C(=O)O; conditions: without Pi, 1 mM MgCl2, 0.1 M HEPES pH 8.0, 25 °C, racemic substrate
T3 construct: recombinant from pT7-7, expressed in E. coli; chelex-treated apo-enzyme reconstituted with MgCl2

Substance | Km [1] [µM] | kcat [1] [s⁻¹] | kcat/Km [1] [M⁻¹ s⁻¹] | Km (O=C(O)CC(=O)C(=O)O) [µM] | kcat (O=C(O)CC(=O)C(=O)O) [s⁻¹] | kcat/Km (O=C(O)CC(=O)C(=O)O) [M⁻¹ s⁻¹] | Km [2] [µM] | kcat [2] [s⁻¹] | kcat/Km [2] [M⁻¹ s⁻¹]
HMG/CHA aldolase (Pseudomonas putida F1; R195A) | 1370 ± 58 | 6.72 ± 0.19 | 4910 ± 250 |  |  |  |  |  | 
HMG/CHA aldolase (Pseudomonas putida F1; H75A) | 389 ± 22 | 22.3 ± 0.75 | 57300 ± 3800 |  |  |  |  |  | 
HMG/CHA aldolase (Pseudomonas putida F1; T145A) | 1080 ± 88 | 0.889 ± 0.057 | 823 ± 85 |  |  |  |  |  | 
HMG/CHA aldolase (Pseudomonas putida F1; K147A) | 2010 ± 210 | 0.014 ± 0.00039 | 6.97 ± 0.75 |  |  |  |  |  | 
HMG/CHA aldolase (Pseudomonas putida F1; R123K) | 3210 ± 210 | 0.086 ± 0.0046 | 26.7 ± 2.3 |  |  |  |  |  | 
HMG/CHA aldolase (Pseudomonas putida F1; R40A) | 304 ± 27 | 6.7 ± 0.14 | 22000 ± 2100 |  |  |  |  |  | 
HMG/CHA aldolase (Pseudomonas putida F1) | 188 ± 11 | 15.6 ± 0.54 | 83000 ± 5600 | 298 ± 30 | 1.86 ± 0.18 | 6240 ± 870 | 15.0 ± 1.3 | 13.4 ± 0.31 | 893000 ± 80000
HMG/CHA aldolase (Pseudomonas putida F1; G144V) | 1390 ± 160 | 0.215 ± 0.015 | 155 ± 21 |  |  |  |  |  | 
HMG/CHA aldolase (Pseudomonas putida F1; N71A) | 796 ± 70 | 0.014 ± 0.0011 | 17.6 ± 2.1 |  |  |  |  |  | 
